B1: TBC1D10A (parent)
chain: WCLVQICEKYLPGYYSEKLEAIQL

Variants of: B1
Experiment: protein stability index of a GFP-peptide fusion (GPS, HEK-293T) (PSI 1-6); higher = more stable
Conditions: c terminus: a fixed tail appended
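Further: lentivirally expressed fusions sorted by FACS into six bins by GFP to DsRed ratio, PSI derived from sequencing read proportions per bin multiplied by bin number.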

Variant | protein stability index
WCLVQICEKYPPGYYSEKLEAIQL [L11P] | 3.62
WCLVQICEKYIPGYYSEKLEAIQL [L11I] | 3.03
WCLVQICEKYEPGYYSEKLEAIQL [L11E] | 2.65
WCLVQICEKYLPGNYSEKLEAIQL [Y14N] | 3.59
WCLVQICEKYLPGPYSEKLEAIQL [Y14P] | 2.61
WCLVQICEKYLPGEYSEKLEAIQL [Y14E] | 1.59
WCLVQICEKYLPGDYSEKLEAIQL [Y14D] | 3.02
WCLVQICEKYLPGKYSEKLEAIQL [Y14K] | 3.06
WCLVQICEKYLPGVYSEKLEAIQL [Y14V] | 3.94
WCLVQICEKYLPGYYSEKLECIQL [A21C] | 4.65
WCLVQICEKYLPGYYSEKLEHIQL [A21H] | 3.56
WCLVQICEKYLPGYYSEKLETIQL [A21T] | 2.15
WCLVQICEKYLPGYYSEKLELIQL [A21L] | 4.51
WCLVQICEKYLPGYYSEKLEEIQL [A21E] | 3.38
WCLVQICEKYLPGYYSEKLEMIQL [A21M] | 3.73
WCLVQICEKYLPGYYSEKLEGIQL [A21G] | 2.02
WCLVQICEKYLPGYYSEKLERIQL [A21R] | 2.99
WCLVQICEKYLPGYYSEKLEPIQL [A21P] | 3.77
WCLVQICEKYLPGYYSEKLEQIQL [A21Q] | 2.37
WCLVQICEKYLPGYYSEKLAAIQL [E20A] | 2.21
WCLVQICEKYLPGYYSEKLQAIQL [E20Q] | 2.79
WCLVQICEKYLPGYYSEKLDAIQL [E20D] | 1.79
WCLVQICEKYLPGYYSEKLSAIQL [E20S] | 2.64
WCLVQICEKYLPGYYSEKLKAIQL [E20K] | 3.35

Variant | protein stability index
WCLVQICEKYLPGYYSEKLIAIQL [E20I] | 2.3
WCLVQICEKYLPGYYSEKLRAIQL [E20R] | 1.8
WCLVQICEKYLPGYYSEKLTAIQL [E20T] | 1.47
WCLVQICEKYLPGYYSEKLWAIQL [E20W] | 1.74
WCLVQICEKYLPGYYSEKLHAIQL [E20H] | 3.07
WCLVQICEKYLPIYYSEKLEAIQL [G13I] | 1.54
WCLVQICEKYLPMYYSEKLEAIQL [G13M] | 3.53
WCLVQICEKYLPWYYSEKLEAIQL [G13W] | 2.7
WCLVQICEKYLPSYYSEKLEAIQL [G13S] | 2.02
WCLVQICEKYLPEYYSEKLEAIQL [G13E] | 3.01
WCLVQICEKYLPKYYSEKLEAIQL [G13K] | 2.91
WCLVQICEKYLPCYYSEKLEAIQL [G13C] | 1.5
WCLVQICEKYLPYYYSEKLEAIQL [G13Y] | 5.24
WCLVQICEKYLPAYYSEKLEAIQL [G13A] | 3.16
WCLVQICEKYLPGYWSEKLEAIQL [Y15W] | 2.85
WCLVQICEKYLPGYCSEKLEAIQL [Y15C] | 2.35
WCLVQICEKYLPGYFSEKLEAIQL [Y15F] | 1.24
WCLVQICEKYLPGYYSEQLEAIQL [K18Q] | 1.91
WCLVQICEKYLPGYYSETLEAIQL [K18T] | 2
WCLVQICEKYLPGYYSELLEAIQL [K18L] | 1.83
WCLVQICEKYLPGYYSERLEAIQL [K18R] | 2.22
WCLVQICEKYLPGYYSEDLEAIQL [K18D] | 1.92
WCLVQICEKYLPGYYSEVLEAIQL [K18V] | 3.17
WCLVQICEKYLPGYYSEHLEAIQL [K18H] | 3.99

Variant | protein stability index
WCLVQICEKYLPGYYSEWLEAIQL [K18W] | 3.09
WCLVQICEKYLPGYYSEMLEAIQL [K18M] | 2.98
WCLVQICEKYLPGYYSEILEAIQL [K18I] | 2.1
WCLVQICEKYLPGYYSECLEAIQL [K18C] | 3.08
WCLVQICEKMLPGYYSEKLEAIQL [Y10M] | 3.09
WCLVQICEKPLPGYYSEKLEAIQL [Y10P] | 2.35
WCLVQICEKVLPGYYSEKLEAIQL [Y10V] | 1.61
WCLVQICEKKLPGYYSEKLEAIQL [Y10K] | 2.62
WCLVQICEKILPGYYSEKLEAIQL [Y10I] | 1.18
WCLVQICEKQLPGYYSEKLEAIQL [Y10Q] | 2.39
WCLVQICEKGLPGYYSEKLEAIQL [Y10G] | 4.89
WCLVQICEKWLPGYYSEKLEAIQL [Y10W] | 4.21
WCLVQICEKYLPGYYSQKLEAIQL [E17Q] | 1.94
WCLVQICEKYLPGYYSVKLEAIQL [E17V] | 3.99
WCLVQICEKYLPGYYSPKLEAIQL [E17P] | 2.03
WCLVQICEKYLPGYYSMKLEAIQL [E17M] | 3.65
WCLVQICEKYLPGYYSHKLEAIQL [E17H] | 1.77
WCLVQICEKYLPGYYSKKLEAIQL [E17K] | 1.66
WCLVQICEKYLPGYYSCKLEAIQL [E17C] | 2.56
WCLVQICEKYLPGYYSIKLEAIQL [E17I] | 2.74
WCLVQICEKYLPGYYSLKLEAIQL [E17L] | 3.48
WCLVQICEIYLPGYYSEKLEAIQL [K9I] | 3.29
WCLVQICEPYLPGYYSEKLEAIQL [K9P] | 2.17
WCLVQICETYLPGYYSEKLEAIQL [K9T] | 3.21

Variant | protein stability index
WCLVQICECYLPGYYSEKLEAIQL [K9C] | 4.4
WCLVQICEHYLPGYYSEKLEAIQL [K9H] | 2.65
WCLVQICEFYLPGYYSEKLEAIQL [K9F] | 3.33
WCLVQICEKYLPGYYSEKLEAGQL [I22G] | 2.35
WCLVQICEKYLPGYYSEKLEAMQL [I22M] | 2.21
WCLVQICEKYLPGYYSEKLEAQQL [I22Q] | 2.4
WCLVQICEKYLPGYYSEKLEANQL [I22N] | 1.3
WCLVQICEKYLPGYYSEKLEAKQL [I22K] | 2.86
WCLVQICEKYLPGYYSEKLEAEQL [I22E] | 3.23
WCLVQICEKYLPGYYSEKLEALQL [I22L] | 4.01
WCLVQICEKYLPGYYSEKLEASQL [I22S] | 1.72
WCLVQICEKYLPGYYSEKLEAVQL [I22V] | 3.09
WCLVQICEKYLPGYYSEKLEATQL [I22T] | 2.67
WCLVQICEKYLPGYYSEKLEADQL [I22D] | 3.23
WCLVQICEKYLPGYYSEKLEAIQT [L24T] | 2.55
WCLVQICEKYLPGYYSEKLEAIQV [L24V] | 2.38
WCLVQICEKYLPGYYSEKLEAIQF [L24F] | 3.24
WCLVQICEKYLPGYYSEKLEAIQK [L24K] | 3.14
WCLVQICEKYLPGYYSEKLEAIQH [L24H] | 1.14
WCLVQICEKYLPGYYSEKLEAIQD [L24D] | 2.69
WCLVQICEKYLPGYYSEKLEAIQA [L24A] | 3
WCLVQICEKYLPGYYSEKLEAIQW [L24W] | 2.98

Source: the supplement of paper PMC10567573
